Biological target: the molecule itself

B1: PfPKG (protein)
chain: MEEDDNLKKGNERNKKKAIFSNDDFTGEDSLMEDHLELREKLSEDIDMIKTSLKNNLVCSTLNDNEILTLSNYMQFFVFKSGNLVIKQGEKGSYFFIINSGKFDVYVNDKKVKTMGKGSSFGEAALIHNTQRSATIIAETDGTLWGVQRSTFRATLKQLSNRNFNENRTFIDSVSVFDMLTEAQKNMITNACVIQNFKSGETIVKQGDYGDVLYILKEGKATVYINDEEIRVLEKGSYFGERALLYDEPRSATIIAKEPTACASICRKLLNIVLGNLQVVLFRNIMTEALQQSEIFKQFSGDQLNDLADTAIVRDYPANYNILHKDKVKSVKYIIVLEGKVELFLDDTSIGILSRGMSFGDQYVLNQKQPFKHTIKSLEVCKIALITETCLADCLGNNNIDASIDYNNKKSIIKKMYIFRYLTDKQCNLLIEAFRTTRYEEGDYIIQEGEVGSRFYIIKNGEVEIVKNKKRLRTLGKNDYFGERALLYDEPRTASVISKVNNVECWFVDKSVFLQIIQGPMLAHLEERIKMQDTKVEMDELETERIIGRGTFGTVKLVHHKPTKIRYALKCVSKRSIINLNQQNNIKLEREITAENDHPFIIRLVRTFKDSKYFYFLTELVTGGELYDAIRKLGLLSKSQAQFYLGSIILAIEYLHERNIVYRDLKPENILLDKQGYVKLIDFGCAKKVQGRAYTLVGTPHYMAPEVILGKGYGCTVDIWALGICLYEFICGPLPFGNDEEDQLEIFRDILTGQLTFPDYVTDTDSINLMKRLLCRLPQGRIGCSINGFKDIKDHPFFSNFNWDKLAGRLLDPPLVSKSETYAEDIDIKQIEEEDAEDDEEPLNDEDNWDIDF
In the case of B1, the Kd is reported as about 32 µM.

From publication PMC6628679 (2019)
